Measured values published in patent publication US7527954.

Target: biotinylated Calmodulin-binding peptide, biotin-…
Experiment: model selection from a 4200:1 mixture (ED-B:Calmodulin templates) on peptide-coated magnetic beads; 35-cycle PCR, 1:10^5 dilution, real-time PCR on 1 µl; background carry-over of the excess non-binder

biotinylated Calmodulin-binding peptide, biotin-…, sequence (peptide, as listed by the source): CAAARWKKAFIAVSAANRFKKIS

DNA molecules detected after selection (DNA molecules): 1.4e+06
Substance: M.Hae III-ED-B fusion protein (covalently bonded to the linear DNA coding for it) (from UniProt P20589 1-330; P02751 1266-1356)
